This note sets out measurements from paper PMC7534926 (The Journal of Cell Biology, 2020).

One assay addresses Magi1 (UniProt Q4L1J4). Description: proximity ligation assay. To be noted: reference: no treatment; sites S1242.
The next assay concerns the target Pdlim5 (UniProt Q62920). Description: proximity ligation assay. To be noted: reference: no treatment; sites S1242.
The target in a further assay is Pdlim5 PDZ domain (UniProt Q96HC4). The experiment in a line: PDZ-domain microarray probed with biotinylated peptide.
The next assay concerns the target Erbin PDZ domain (UniProt Q96RT1). The description is as above. Particulars: reference: unphosphorylated peptide; sites S1242,S1245.
In assay [1] the target is endogenous delta-catenin of rat hippocampal neurons (rat (endogenous in primary hippocampal neurons)) (UniProt O35116). Description: proximity ligation.
Assay [2] concerns the target GST fusion of the PDZ domain of Erbin (array) (human, UniProt Q96RT1 1321-1410). The experiment in a line: peptide or protein array.

No end group written: not given here. *: point of attachment. Biotin = O=C1N[C@H]2[C@H](CS[C@H]2CCCCC(=O)*)N1

Sequence of endogenous delta-catenin of rat hippocampal neurons (rat (endogenous in primary hippocampal neurons)) (O35116 whole entry, stated change not applied, the tested form may be a part): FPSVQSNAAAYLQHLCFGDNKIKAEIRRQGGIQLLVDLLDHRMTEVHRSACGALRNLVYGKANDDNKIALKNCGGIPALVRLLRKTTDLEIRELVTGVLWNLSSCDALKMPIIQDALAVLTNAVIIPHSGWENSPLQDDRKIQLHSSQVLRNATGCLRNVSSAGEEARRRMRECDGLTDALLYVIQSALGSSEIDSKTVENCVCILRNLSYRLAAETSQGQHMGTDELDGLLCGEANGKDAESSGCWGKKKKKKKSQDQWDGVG
Sequence of GST fusion of the PDZ domain of Erbin (array) (Q96RT1 1321-1410): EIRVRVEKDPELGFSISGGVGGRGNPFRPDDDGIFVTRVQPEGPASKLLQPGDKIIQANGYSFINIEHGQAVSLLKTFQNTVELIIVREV
Sequence of Magi1 (Q4L1J4 whole entry, looked up): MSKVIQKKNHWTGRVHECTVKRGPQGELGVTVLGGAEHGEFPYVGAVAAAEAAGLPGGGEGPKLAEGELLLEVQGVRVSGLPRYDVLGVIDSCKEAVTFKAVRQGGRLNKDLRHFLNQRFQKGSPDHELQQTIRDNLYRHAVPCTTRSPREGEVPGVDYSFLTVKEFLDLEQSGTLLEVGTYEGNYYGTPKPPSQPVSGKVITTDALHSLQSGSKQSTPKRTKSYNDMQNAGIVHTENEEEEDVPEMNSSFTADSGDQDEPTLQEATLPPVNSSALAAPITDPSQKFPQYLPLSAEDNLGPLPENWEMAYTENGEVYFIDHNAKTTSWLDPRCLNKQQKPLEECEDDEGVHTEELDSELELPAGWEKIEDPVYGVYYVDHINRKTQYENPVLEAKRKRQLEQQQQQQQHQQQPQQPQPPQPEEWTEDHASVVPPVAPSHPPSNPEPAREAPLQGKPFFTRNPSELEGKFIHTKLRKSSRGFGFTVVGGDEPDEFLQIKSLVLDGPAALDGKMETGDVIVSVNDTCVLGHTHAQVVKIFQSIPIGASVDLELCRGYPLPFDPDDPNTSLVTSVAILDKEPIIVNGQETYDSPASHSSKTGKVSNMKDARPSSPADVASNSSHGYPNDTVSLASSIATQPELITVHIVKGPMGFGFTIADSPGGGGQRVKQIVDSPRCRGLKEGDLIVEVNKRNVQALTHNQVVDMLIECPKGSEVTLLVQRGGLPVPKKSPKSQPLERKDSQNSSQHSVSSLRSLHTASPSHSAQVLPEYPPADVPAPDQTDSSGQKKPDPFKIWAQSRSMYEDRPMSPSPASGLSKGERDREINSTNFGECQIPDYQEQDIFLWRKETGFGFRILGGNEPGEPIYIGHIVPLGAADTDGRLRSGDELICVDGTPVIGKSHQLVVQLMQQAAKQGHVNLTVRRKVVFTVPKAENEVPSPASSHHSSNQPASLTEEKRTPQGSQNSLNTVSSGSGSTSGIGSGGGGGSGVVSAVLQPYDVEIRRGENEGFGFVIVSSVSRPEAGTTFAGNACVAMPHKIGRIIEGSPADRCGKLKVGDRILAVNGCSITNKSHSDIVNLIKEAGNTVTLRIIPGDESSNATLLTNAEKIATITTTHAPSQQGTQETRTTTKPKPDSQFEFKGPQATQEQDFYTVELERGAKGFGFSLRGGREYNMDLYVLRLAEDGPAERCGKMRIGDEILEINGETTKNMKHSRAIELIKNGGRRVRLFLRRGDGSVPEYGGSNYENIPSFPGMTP

As for delta-catenin 20 µM DHPG, 10 min, the “other: PLA puncta per cell” value with Magi1 was “weaker; reference 21.15 ± 7.24”; with Pdlim5 it was “stronger; reference 20.46 ± 1.41”.
With “delta-catenin C-terminal PDZ-binding motif (from UniProt O35927) pS1242 + pS1245 peptide”, the “binding against the reference” value is on record as “stronger” in the assay with Pdlim5 PDZ domain (reference: pS1242-only peptide, sites S1245) and “stronger” with Pdlim5 PDZ domain (reference: pS1245-only peptide, sites S1242).
As for “delta-catenin C-terminal PDZ-binding motif (from UniProt O35927) phosphorylated peptide (doubly phosphorylated probe assumed)”, the “binding against the reference” value in the assay with Erbin PDZ domain is given as “same”.
In assay [1], “endogenous Magi1 of rat hippocampal neurons (from UniProt Q4L1J4 1-1255) (natural protein)” registered a PLA puncta per cell (20 µM DHPG, 10 min) of 8.95 puncta/cell; a PLA puncta per cell (no treatment) of 21.1 puncta/cell; a PLA puncta per neuron (puncta per neuron) of 16.

B1: delta-catenin PDZ-binding motif peptide, De-Phospho (Biotin-TSHYPASPDSWV) (peptide)
peptide: Biotin-TSHYPASPDSWV
With B1, in assay [2], the binding result is reported as “binds”.

B2: endogenous Pdlim5 of rat hippocampal neurons (natural protein)
chain: MSNYNVSLVGPAPWGFRLQGGKDFNMPLTISSLKDGGKASQAHVRIGDVVLSIDGISAQGMTHLEAQNKIKACTGSLNMTLQRASAAAKSEPVAVQKGEPKEVVKPVPITSPAVSKVTSTTNMAYNKVPRPFGSVSSPKVTSIPSPSSAFTPAHAATSSHASPPPVAAVTPPPLSASGLHASANPSAAQCSSPPNTGKPAVHVPRQPTVTSVCSESAQELAEGQRRGSQGDIKQQNGPPRKHIVERNTEFYHIPTHSDASKKRLIEDTEDWRPRTGTTQSRSFRILAQITGTEHLKESENDNAKKANSTPEPSQQSASPLSAAESLESPGSNRPVVAGLRSAAAFKPVGSTSVKSPSWQRPNQAAPSTGRISNSASSSGTGAPMKPAVGPPQPSDQDTLVQRAEHIPAGKRTPMCAHCNQAIRGPFLVALGKSWHPEEFNCAHCKNTMAYIGFVEEKGALYCELCYEKFFAPECGRCQRKILGEVINALKQTWHVSCFVCVACGKPIRNNVFHLEDGEPYCETDYYALFGTICRGCEFPIEAGDMFLEALGSTWHDTCFVCSVCCESLEGQTFFSKKDKPLCKKHAHSVNF
Take B2: in assay [1], the PLA puncta per cell (20 µM DHPG, 10 min) was determined as 54.2 puncta/cell; the PLA puncta per cell (no treatment) is 20.5 puncta/cell; the PLA puncta per neuron (puncta per neuron) amounted to 37.7.
